According to US20080020412A1, “Aurora expression constructs” (priority 2006, published 2008):
Substitutions are numbered along the chain they refer to.

T1: mouse Aurora-A (Mus musculus, UniProt P97477, K218R/M280L/N164G)
T1 construct: mouse Aurora-A residues 98-395; GST (N, cleaved yes); made in house; host or cells: E. coli BL21(DE3) Star, co-expressed with lambda phosphatase; a second 98-395 preparation came from insect cells
T1 sequence (P97477 with tags, fused parts or gaps N164G/K218R/M280L): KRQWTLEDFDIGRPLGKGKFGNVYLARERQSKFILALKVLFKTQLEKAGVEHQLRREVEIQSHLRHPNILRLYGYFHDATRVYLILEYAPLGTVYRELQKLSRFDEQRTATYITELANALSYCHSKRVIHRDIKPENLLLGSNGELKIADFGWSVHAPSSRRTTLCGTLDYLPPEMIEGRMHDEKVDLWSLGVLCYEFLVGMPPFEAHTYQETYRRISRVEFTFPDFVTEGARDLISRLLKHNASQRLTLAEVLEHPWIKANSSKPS

B1: insect cell-expressed 98-395: insect cell-produced mouse Aurora-A enzyme with residues 98-395 (human residues 107-403) (protein, UniProt P97477 98-395, looked up, fragment)
chain: GNDSEKEQASLQKTEDTKKRQWTLEDFDIGRPLGKGKFGNVYLARERQSKFILALKVLFKTQLEKANVEHQLRREVEIQSHLRHPNILRLYGYFHDATRVYLILEYAPLGTVYRELQKLSKFDEQRTATYITELANALSYCHSKRVIHRDIKPENLLLGSNGELKIADFGWSVHAPSSRRTTMCGTLDYLPPEMIEGRMHDEKVDLWSLGVLCYEFLVGMPPFEAHTYQETYRRISRVEFTFPDFVTEGARDLISRLLKHNASQRLTLAEVLEHPWIKANSSKPPTGHTSKEPTSKSS
B2: E. coli-produced 98-395: bacterially produced mouse Aurora-A residues 98-395 with three humanizing and stabilizing mutations (protein)
chain: B1 chain with N67G, K121R, M183L
modifications: Mutated Constructs
notes: bacterially produced mouse Aurora-A residues 98-395 with three humanizing and stabilizing mutations
B3: E. coli-produced 116-381: E. coli-expressed mouse Aurora-A crystallography construct, residues 116-381 (human residues 125-391) (protein)
chain: T1 sequence (P97477 with tags, fused parts or gaps N164G/K218R/M280L)
modifications: Mutated Constructs
B4: mAurB 7X: truncated mouse Aurora-B with 7 hydrophobic surface residues mutated, GST-tagged (protein, listed as Mus musculus)
chain: KRQFTIDNFEIGRPLGKGKFGNVYLAREKKSRFIVALKILFKSQIEKEGVEHQLRREIEIQAHLKHPNILQLYNYFYDQQRIYLILEYAPRGELYKELQKSRTFDEQRTATIMEELSDALTYCHKKKVIHRDIKPENLLLGSQGELKIADFGWSVHAPSSRRKTMCGTLDYLPPEMIEGRMHNEKVDLWCIGVLCYELMVGNPPFESPSHSETYRRISKVDLKFPSSVTSGAQDLISKLLKHNPSQRLTLAEVAAHPWVRANSRRPS
modifications: GST tag
notes: truncated mouse Aurora-B with 7 hydrophobic surface residues mutated, GST-tagged

Assays:
mouse Aurora-A [1] = assay: Aurora-A activity assay (HTRF, enzyme and ATP titrations, histone H3 peptide substrate); assay type: biochemical; details: for Km / Vmax/[enzyme]: ATP titration; for Km: 120 nM biotinylated histone H3 peptide, 25° C., fit in GraphPad Prism; for Vmax/[enzyme]: ΔF/hr per nM enzyme
Method: (§1) Protein samples were diluted to 1 mg/mL and incubated for 2 hrs at 4° C. with 1 mM ATP and 5 mM MgCl2. Excess ATP was removed by extensive dialysis against 50 mM Tris-HCl pH 7.5, 200 mM NaCl, and 3 mM DTT.
(§2) Aurora A was titrated twofold in an assay buffer composed of 10 mM Tris-HCl pH 7.2, 10 mM MgCl2, 0.1% BSA, 0.01% Triton X-100 and 1 mM DTT, and containing 120 nM of biotinylated histone H3 substrate peptide (Upstate Biotechnology). The kinase reactions were initiated by adding 10 μL ATP to a final volume of 60 μL and the final ATP concentration of 20 μM. The reactions were incubated at 25° C. for 60 min and terminated by adding EDTA to a final concentration of 200 mM.
(§3) To determine the Km for ATP, ATP was titrated twofold in the assay buffer. The kinase reaction was initiated by adding 50 μL Aurora A (16 nM of insect cell-produced mouse enzyme with residues 98-395, 8 nM of the bacterially produced enzyme with residues 98-395, and 30 nM of the E. coli-expressed crystallography construct with residues 116-381) and histone H3 to a final volume of 60 μL and a final concentration of 120 nM.
(§4) To detect the assay product, the kinase reaction solution was combined with the detection buffer (the KF buffer) supplemented with 0.4 ng/μL phospho-histone H3 europium cryptate-conjugated antibody and 16 nM streptavidin-XL665 (both from Cisbio) in a 1:1 ratio in a 384-well plate. The mixture was incubated for 45 minutes at 25° C. and the plate was then scanned on the Analyst AD system. The fluorescence value F is defined as the ratio of fluorescent emissions at 620 and 665 nm. ΔF was generated by subtracting the average F value for negative control for enzyme activity from the F value in each reaction well. ΔF was plotted against enzyme concentration (for enzyme titrations) or against ATP concentration (for ATP titrations) with GraphPad Prism. The Km values and confidence intervals were determined by fitting the ATP titration curve in GraphPad Prism to the following equation: y=(Vmax*x)/(Km+x), where y is ΔF/hr and x is an ATP concentration.

mouse Aurora-A [2] = biological target: T1, mouse Aurora-A; assay: as above; assay type: biochemical; details: compared with the longer construct, FIG. 4
Method: as §1, §2, §3, §4

[3] = Electrospray mass spectrometry of purified protein for proteolysis between residues 291 and 292; assay type: physicochemical; details: expressed in E. coli, GST-tagged protein
Source text: mAurB 7X was expressed in E. coli, purified as described below, and analyzed by electrospray mass spectrometry to verify the integrity of the purified protein. […] A construct missing the Val291→Ser and Met258→Lys mutations (referred to as mAurB 5X) was purified, and analyzed by mass spec to determine the extent of proteolysis between Val291 and Lys292. Even in this wild type configuration, proteolysis still affected approximately 25% of total GST-tagged protein. Two additional conservative mutations were introduced to eliminate the major site of proteolysis: Val291→Leu and Lys292→Arg referred to as mAurB 8X VK→LR (5′ primer: SEQ ID NO:53; 3′ primer: SEQ ID NO:54) and Val291→Leu and Lys292→Gln referred to as mAurB 8X VK→LQ (5′ primer: SEQ ID NO:55; 3′ primer: SEQ ID NO:56). The protein sequences of the mAurB 8X VK→LR and mAurB 8X VK→LQ are provided in SEQ ID NO:57 and SEQ ID NO:58, respectively.

mouse Aurora-B = biological target: T2, mouse Aurora-B (Mus musculus, UniProt O70126, L215S/L233S/M258K/P302T/P322T/V291S/W318S); assay: Aurora-B enzyme activity assay (HTRF); assay type: biochemical; details: 20 nM construct against 300 nM commercially available Aurora-B
T2 construct: made in house; host or cells: E. coli BL21(DE3) Star
Method: Aurora-B enzyme preparations were tested for kinase activity in the presence and absence of compounds using a homogeneous time resolved fluorescence (HTRF) assay. In brief, the assay was performed by adding enzyme under appropriate reaction conditions to a tagged substrate. After the kinase reaction proceeds, quenching reagent is added, along with a first molecule consisting of a fluorescence donor conjugated to an antibody recognizing the phosphorylated substrate, and a second molecule that recognizes the tag and that is conjugated to a fluorescence acceptor. The extent of the kinase reaction is measured by time-resolved fluorescence transfer from the fluorescence donor to the fluorescence acceptor in a detection buffer, which occurs when the donor and acceptor are in proximity to one another on the phosphorylated substrate.
The assay was carried out as follows. […]
A 5 μL aliquot of the quenched reaction was transferred to a separate plate containing 5 μL detection buffer (final concentrations: 125 ng/mL europium cryptate-conjugated α-phospho H3 antibody, 8 nM streptavidin-tagged XL665, 25 mM HEPES buffer (pH 7.0), 0.25 M KF, and 0.05% BSA). The detection solution was allowed to incubate at room temperature for 45 min, after which the detection reactions were read on an Analyst AD (LJL Biosystems). […] Delta F is a value calculated from the ratio between the 665 nm and 620 nm emissions. […]

Molecule	Km (mouse Aurora-A [1]) [µM]	Vmax/[enzyme] (mouse Aurora-A [1]) [h⁻¹ nM⁻¹]	enzyme activity (in words) (mouse Aurora-A [1]; H3 peptide as substrate, FIG. 4)	change in Km for ATP (in words) (mouse Aurora-A [2])	extent of proteolysis between residue 291 and Lys292 [3]	activity compared with commercially available Aurora-B (mouse Aurora-B)
B1	13.6 ± 3.9	590				
B2	10.5 ± 3.5	1035				
B3	65.3 ± 16.1	280	less active	substantial increase in the Km for ATP		
B4					Approximately 50%	compares favorably
